Data published in the supplement of paper PMC9170038.

Test system: MS2 coat protein
Test: apparent KD of MS2 coat protein; designed switch direction (-1 OFF switch, 1 ON switch): -1; higher = weaker reporter binding
Method in brief: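 On Illumina chips, designed RNA switches with common flanks were made by stalled E. coli RNA polymerase. Titrations with SNAP-549-labelled MS2 coat protein, doubling from 0.7 or 1.5 nM to 3 µM, were done with no input, with 200 uM small-molecule ligand, or with an oligonucleotide input. Apparent KD is the median per design over clusters, from curve fits of normalised cluster fluorescence.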

[1] = Eterna round: R95, input ligand: microRNA oligo, concentration not stated
[2] = input ligand: microRNA oligo, concentration not stated

Sequence	apparent KD of MS2 coat protein (Eterna round: R95, input ligand: FMN 200 uM)	apparent KD of MS2 coat protein [1]	apparent KD of MS2 coat protein (Eterna round: R95, input ligand: none)	apparent KD of MS2 coat protein (input ligand: FMN 200 uM)	apparent KD of MS2 coat protein (input ligand: none)	apparent KD of MS2 coat protein [2]
UGUACGAUGCGUGCUGACAUGCGUCGUGCAGCAGGUGGAACAUGAGGAUCACCCAUGUCCUCAUUUGCUCGUCUUAU [Mat - Sensor v3 - Turn-off var 2 - D21] (puzzle: Sensor v3, turn-off variant 2)	35.2 nM	155 nM	34.6 nM			
UGUCAAGCAGGAUAUGCACGUAAUAACAUGAGGAUCACCCAUGUGACCGAUUUAUAUUCUGCAGAAGGGCUUGUUU [LRO-Excl5-19-mod of Erxesoan mod by Eli Fisker] (Eterna round: R97, puzzle: Exclusion 5)				109 nM	26.7 nM	
UGUGUGCUGCGAGGAUAUACAUGAGGAUCACCCAUGUAAAUGUGUGAGGCUUUGCCUCACACAAUGUAGAAGGCGCAGUACACU [Mat - Exclusion NG 2 - Mod of JL - D4] (Eterna round: R96, puzzle: Exclusion NG 2)				16.9 nM	11.6 nM	9.63 nM
UGUUCGCGAGGAUAUGCAUUCGAGUCCAUUACGUGUCUGGGACUUGAGGAUCACCCAAGUAGAAGGCGUCUCAC [salish99_ex2_r4_645] (Eterna round: R97, puzzle: Exclusion 2)				115 nM	122 nM	
UGUUGUCGCGCAGGAUAUGUAUGAGGAUCACCCAUUAAUAAAUUUUAACCACGAGGAUCACCCGUGUAGAAGGGCGCGACAACA [pwkr exNG2 2xF5 1xFMN.17] (Eterna round: R96, puzzle: Exclusion NG 2)				36.6 nM	33.1 nM	19.7 nM
UGUUGUCGCGUAGGAUAUGGCCAACAGGCCGUAGGAUAUGGGAAACCAGAAGGACCGCCAACAGGCGAGAAGGACGGGACAACU [pwkr exNG2 2xF7 2xFMN.21] (Eterna round: R96, puzzle: Exclusion NG 2)				127 nM	72 nM	49.4 nM
UGUUGUUACGCAGGAUAUGUAUGAGGAUCACCCAUAAAACACACACUCCCAUGAGGAUCACCCAUGUAGAAGGGCGGGUUAACA [pwkr exNG2 2xF5 1xFMN.8] (Eterna round: R96, puzzle: Exclusion NG 2)				124 nM	80.8 nM	54.9 nM
UGUUGUUACGUAGGAUAUUGUCAACAGGCAGUAGGAUAUGCGAAAGCAGAAGGACCGCCAACAGGCGAGAAGGACGGGUUAACA [pwkr exNG2 2xF7 2xFMN.3] (Eterna round: R96, puzzle: Exclusion NG 2)				614 nM	42.7 nM	514 nM
UGUUGUUGCGCAGGAUAUUGCCAACAGGCAGUAGGAUAUCCGAAAGGAGAAGGACCGCCAACAGGCGAGAAGGGCGGGACAACU [pwkr exNG2 2xF7 2xFMN.12] (Eterna round: R96, puzzle: Exclusion NG 2)				93.9 nM	64.3 nM	44.5 nM
UUAAAUCAUGUAGGAUAUGCGUGGCGAAGCUAUGCAGAAGGACAUGAGGAUCACCCAUGUUCUAGCGUCUGCGUACAGAUGCAA [JL ENG1 1.10] (Eterna round: R96, puzzle: Exclusion NG 1)				93.1 nM	17.5 nM	17.5 nM
UUAAAUCAUGUAGGAUAUGCGUUGCGAAGCGAUGCAGAAGGACAUGAGGAUCACCCAUGUGCUAGCGUCCGCGUACGGAUGCAA [Mat - Exclusion NG 1 - Mod of JL - D60] (Eterna round: R96, puzzle: Exclusion NG 1)				172 nM	52 nM	65.3 nM
UUAAAUCAUGUAGGAUAUGCUUUGCGAAGCGAGGCAGAAGGACAUGAGGAUCACCCAUGUGCUAGCGUCCGAGUACGGAUGCAA [Mat - Exclusion NG 1 - Mod of JL - D62] (Eterna round: R96, puzzle: Exclusion NG 1)				214 nM	83.3 nM	62.6 nM
UUAAUACAUGUAGGAUAUGCGUGGCGAAGCUAUGCAGAAGGACAUGAGGAUCACCCAUGUCUAUGCGUCCGCGUACGGAUGCAA [JL Eng1 1.21 mod 6] (Eterna round: R96, puzzle: Exclusion NG 1)				18.4 nM	16.4 nM	9.06 nM
UUAAUGAUUGUGAGGAUAUCGGAUAGAUAGAUAUUUGAGAAGGUACAUGAGGAUCACCCAUGUGUGAUUAGAGA [Brourd's EX4 #67] (Eterna round: R97, puzzle: Brourd's mod of Exclusion 4)				155 nM	111 nM	
UUAAUGUGAGGAUAUCAGGUGUGCUAGAGAACUGGUACAUCUGAGAAGGCACAUGAGGAUCACCCAUGUUCUUC [Mat - Exclusion 4 - Mod of JL - D55] (puzzle: Exclusion 4)		36.8 nM				
UUAAUGUGAGGAUAUCAGGUGUGCUAGAGUACUGGUACAUCUGAGAAGGCACAUGAGGAUCACCCAUGUUCUUC [Mat - Exclusion 4 - Mod of JL - D54] (puzzle: Exclusion 4)		34.3 nM				
UUAAUUAAUUAUAUAAGAUCACAUGAGGAUCACCCAUGUAUAUAGGAUAUCAGCUCGAUUAGAGCUGAGAAGGAUAUACAAUAU [ExNG3/3-B1] (Eterna round: R96, puzzle: Exclusion NG 3)				172 nM	147 nM	138 nM
UUAAUUACGGUGCUUUAACCUCACAUGAGGAUCACCCAUGUGCAGGAUAUCAGCUCGUUUAGAGCUGAGAAGGGCACUGCACCG [ExNG3/11-A2] (Eterna round: R96, puzzle: Exclusion NG 3)				13.9 nM	13.5 nM	8.87 nM
UUAAUUCUGAUUCUUGAAAUACAUGAGGAUCACCCAUGUUCACAGGAUAUUGAUUAUGGUAGUAACAAGAAGGGUGUAUCAUAU [JR_ExcNG3_Sub039] (Eterna round: R96, puzzle: Exclusion NG 3)						64.8 nM
UUAGAAAUGUUAGGAUAUUAAUAUUUUUUUAGUAUGAUCUACAUGAGGAUCACCCAUGUUAAUAUUAAGAAGGAACAUUUUAUU [JR_ExcNG2_Sub099] (Eterna round: R96, puzzle: Exclusion NG 2)						71.5 nM
UUAGAAUUGUUAGGAUAUUAAUUAUUUUUUAGUAUGAUCUACAUGAGGAUCACCCAUGUUAAAUAUAAGAAGGAACGUUUUAUU [JR_ExcNG2_Sub097] (Eterna round: R96, puzzle: Exclusion NG 2)						40.7 nM
UUAUACGUUGAGGAUAUGCGAAUUAGUAUAGUUGCAGAAGGCGAUACAUGAGGAUCACCCAUGUUCAUGGGCAU [LRO-Ex6-05] (puzzle: Exclusion 6)		135 nM				
UUAUGAGAGCAGGAUAUCUUAUAUUUUUUUUAAAGAGAAGGGCUCACAUGAGGAUCACCCAUGUGGUCCUAGAU [LRO-Excl6-21-mod of 4.86 by jal] (Eterna round: R97, puzzle: Exclusion 6)				234 nM	36.8 nM	
UUAUUAUAUGUAGGAUAUGCAUAUUGUUGUUAUGCAGAAGGACAUGAGGAUCACCCAUGUAUAUUAUUGUUAUAUAUUAUAUAU [Title] (Eterna round: R96, puzzle: Exclusion NG 1)						20.1 nM
UUAUUGUAUGUAGGAUAUGCGUAUUAUUGUUAUGCAGAAGGACAUGAGGAUCACCCAUGUAUAUUAUUGUUAUAUAUUAUAUAU [Title] (Eterna round: R96, puzzle: Exclusion NG 1)				60.9 nM	26.7 nM	22.7 nM
UUCACAUGGACAUAAGAUCACAUGAGGAUCACCCAUGUGAAUAACAAGCUUUUUGCUCGUCUUAUGUCCAAUAAUAU [Stov1/14-A3] (Eterna round: R97, puzzle: Sensor, turn-off variant 1)				13.2 nM	13.2 nM	
UUCAGACAUGAGGAUCACCCAUGUGAGGAUAUGAUGCAGCAGUGGUCUACGCUGUGCAUCAGAAGGCACAUGUG (puzzle: Exclusion 1)		99.6 nM				
UUCAUGUAAGGAUAUACCUCGAGCUGAUGAGAGUCUCAAAUGUAGAAGGUACAUGAGGAUCACCCAUGUACAGG [Eternabot (Original) Solution 5] (Eterna round: R97, puzzle: Exclusion 4)				65.2 nM	42 nM	
UUCAUGUGAGGAUAUGUGAUCUGCUUUCUGUGUAGAUGAUCACAGAAGGCACAUGAGGAUCACCCAUGUAGAUC [Ex4 - 3 - 29] (puzzle: Exclusion 4)		77.3 nM				
UUCCUCAUAACAUGAGGAUCACCCAUGUAUUAAUAGAUAACUGAGGAUAUACUAAUAAUGUUUAUGUAGAAGGCAGAUACAGAU [JR_ExcNG3_Sub014] (Eterna round: R96, puzzle: Exclusion NG 3)						40 nM
